# Source: patent publication US20050164929A1, “Methods of preventing and treating inflammatory bowel disease” (LUPINE LOGIC, INC., priority 2000, published 2005)
# Where “and” joins values, the source holds several entries; their conditions need not be identical. Identical values can stand only once. Marks after values point to notes of the source that are not given here. Residues, ends and D or L forms follow the SMILES beside them. *: point of attachment. Cbz = O=C(OCc1ccccc1)*
# Experiments:
# [1] = tested on: COX-2 induction in Caco-2 cells; assay: COX-2 induction by CG53135 in presence of proteosome inhibitor; format: cell-based, human
# Protocol: FIG. 18. Effect of NFkB on activation of CG53135 and stimulation of COX-2 in intestinal epithelial cells. NFkB promoter activity was assayed in HT-29 and Caco2 cell lines in the presence of CG53135-01 E. coli purified product.
# ITF promoter activity in HT-29 cells was assayed. […] Thus NF-kB may not have a role inducing COX-2 expression in the presence of CG53135.
# endothelial cells = assay: Proliferation summary for variants; format: cell-based; conditions: in vitro
# Protocol: (§1) Experiments were performed to evaluate the proliferative response of representative cell types to CG53135, e.g., a full-length tagged variant (CG53135-01), a deletion variant (CG53135-02), and a full-length codon-optimized untagged variant (CG53135-05).
# (§2) CG53135-02 (batch 1 and 13) was also used in these experiments. Protein was expressed in E. coli, BLR (DE3) (Novagen), transformed with the deletion variant CG53135-02 inserted into a pET24a vector (Novagen). A research cell bank (RCB) was produced and cell paste containing CG53135-02 was produced by fermentation of cells originating from the RCB. Cell membranes were disrupted by high-pressure homogenization, and lysate was clarified by centrifugation. CG53135-02 was purified by ion exchange chromatography. The final protein fraction was dialyzed against the formulation buffer (100 mM citrate, 1 mM ethylenediaminetetraacetic acid (EDTA), and 1 M L-arginine).
# (§3) CG53135-05, DEV10, which were also used in these experiments, was prepared by Cambrex Biosciences (Hopkinton, Mass.) according to Process 1 as described in Section 6.18.1, infra.
# (§4) BrdU Incorporation: proliferative activity was measured by treatment of serum-starved cultured cells with a given agent and measurement of BrdU incorporation during DNA synthesis. Cells were cultured in respective manufacturer recommended basal growth medium supplemented with 10% fetal bovine serum or 10% calf serum as per manufacturer recommendations. Cells were grown in 96-well plates to confluence at 37° C. in 10% CO2/air (to subconfluence at 5% CO2 for dedifferentiated chondrocytes and NHOst). Cells were then starved in respective basal growth medium for 24-72 hours. CG53135 protein purified from E. coli or pCEP4/Sec or pCEP4/Sec-FGF 20× enriched conditioned medium was added (10 μL/100 μL of culture) for 18 hours. BrdU (10 μM final concentration) was then added and incubated with the cells for 5 hours. BrdU incorporation was assayed according to the manufacturer's specifications (Roche Molecular Biochemicals, Indianapolis, Ind.).
# (§5) The above described experiments were also performed using CG53135-02 and CG53135-05 protein products, and the results are summarized in the Conclusion section below.
# [2] = tested on: mesenchymal and epithelial cells; assay: Proliferation summary for variants; format: cell-based; conditions: in vitro
# Protocol: as §1, §2, §3, §4, §5
# [3] = tested on: NIH 3T3 murine embryonic fibroblast cells; assay: BrdU incorporation bioassay of RP-HPLC peak fractions; format: cell-based, mouse; conditions: for PI200: concentration giving BrdU incorporation at 2 times the background, serum-starved NIH 3T3, 18 hours; for induction of DNA synthesis / activity in proliferation assays: BrdU incorporation
# Protocol: The biological activity of CG53135-05 related species collected from the 4 peaks identified by LC and MS was measured by treatment of serum-starved cultured NIH 3T3 murine embryonic fibroblast cells with various doses of the isolated CG53135-05 related species and measurement of incorporation of bromodeoxyuridine (BrdU) during DNA synthesis. For this assay, cells were cultured in Dulbecco's modified Eagle's medium supplemented with 10% fetal bovine serum. Cells were grown in 96-well plates to confluence at 37° C. in 10% CO2/air and then starved in Dulbecco's modified Eagle's medium for 24-72 hours. CG53135-05-related species were added and incubated for 18 hours at 37° C. in 10% CO2/air. BrdU ([…]) was added and incubated with the cells for 2 hours at 37° C. in 10% CO2/air. Incorporation of BrdU was measured by enzyme-linked immunosorbent assay according to the manufacturer's specifications (Roche Molecular Biochemicals, Indianapolis, Ind.).
# Peak 4 was not included in this assay since insufficient material was collected (Peak 4 is less than 3% of the total peak area for CG53135-05).
# NIH 3T3 cells = assay: BrdU incorporation, truncated vs full length FGF-20 conditioned medium; format: cell-based, mouse; conditions: 10 ng/mL
# Protocol: NIH 3T3 mouse fibroblasts were serum-starved, incubated with the indicated factor for 18 hours, and analyzed by a BrdU incorporation assay.
# A vector expressing amino acids 24-211 of FGF-20, referred to as CG53135-17 (SEQ ID NOs:31 and 32), was prepared. The incorporation of BrdU by NIH 3T3 cells treated with conditioned medium obtained using the vector incorporating this truncated form was compared to the incorporation in response to treatment with conditioned medium using a vector encoding full length FGF-20. This experiment was carried out as described above.
# [4] = tested on: soluble FGF receptors (FGFRs); assay: Receptor binding specificity: control growth factors with soluble FGFRs; format: cell-based; conditions: all soluble FGFRs under analysis
# Protocol: NIH 3T3 cells were serum-starved, incubated with the indicated growth factor (square=PDGF-BB; triangle=aFGF; circle=FGF-CX) either alone or together with the indicated soluble FGFR, and analyzed by a BrdU incorporation assay. Experiments were performed in triplicate and are represented as the percent BrdU increase in incorporation of BrdU relative to cells receiving the growth factor alone.
# To determine the receptor binding specificity of FGF-20, we examined the effect of soluble FGF receptors (FGFRs) on the induction of DNA synthesis in NIH 3T3 cells by recombinant FGF-20. Four receptors have been identified to date (Klint P and Claesson-Welsh L. Front. Biosci., 4: 165-177, 1999; Xu X, et al. Cell Tissue Res., 296: 33-43, 1999). Soluble receptors for FGFR1β(IIIc), FGFR2a(IIIb), FGFR2β(IIIb), FGFR2a(IIIc), FGFR3a(IIIc) and FGFR4 were utilized.
# [5] = Turbidity (aggregates) after ultrafiltration/diafiltration; format: physicochemical
# Protocol: The experiment was conducted by performing the ultrafiltration/diafiltration at 2.5 mg/mL CG53135-05 in 0.2M arginine and 0.05 M sodium phosphate buffer at pH 7.0. After exchanging with 7 volumes of the final buffer (0.5M arginine and 0.05 M sodium phosphate buffer at pH 7.0), the diafiltrate is concentrated to ˜20 mg/mL. The diafiltrate is then diluted with the final buffer to ˜12.5 mg/mL and lyophilized. Polysorbate 80 is added either before or after the diafiltration to a final concentration of 0.01%.
# All formulation contains 0.5 M arginine, 0.05 M sodium phosphate monobasic, and 0.01% polysorbate 80.
# [6] = Solubility of protein in formulation buffers; format: physicochemical; conditions: for Solubility of Process 2 protein, Arginine Sulfate vs Arginine Phosphate: Batches #K, #J
# Protocol: Four unexpected properties of CG53135 were discovered and used to develop the new formulation: (1) high concentration of arginine, >0.4 M, increases the solubility to >30 mg/mL; (2) the use of sulfate salt of arginine increases the solubility by at least 2-6 folds; (3) the optimal concentration of sodium phosphate as a buffering salt is 50 mM, with a solubility of at least 1-2 fold increase in comparison with concentrations at 25, 75, and 100 mM; and (4) adding a surfactant during the diafiltration/ultrafiltration step minimizes the formation of aggregates. In development the lyophilized formulation, each component of the new formulation was evaluated for solubility individually. CG53135-05 was precipitated using the precipitate buffer (50 mM NaPi, 5 mM EDTA, 1 M L-Arginine HCl, 2.5 M (NH4)2SO4). The precipitate was washed with 25 mM sodium phosphate buffer at pH 6.5 to remove the residual arginine and ammonium sulfate. The following are examples of data.
molecule,measurement,setting,value
CC(C)C[C@@H](C=O)NC(=O)[C@H](CC(C)C)NC(=O)[C@H](CC(C)C)NC(=O)OCc1ccccc1 [MG132] (Cbz-Leu-Leu-Leu-aldehyde),block of COX-2 induction by CG53135,[1],does not block COX-2 induction
"CG53135-02: Codon optimized, amino acids 2-54 of SEQ ID NO: 2 removed; SEQ ID NOs 3 and 4",proliferation of endothelial cells,endothelial cells,induces proliferation
same,proliferation of mesenchymal and epithelial cells,[2],induce proliferation
CG53135-05 (DEV 10): Process 1 reference standard of CG53135-05 E. coli purified product,PI200,[3],1.0 ng/mL
CG53135-17: CG53135-05 minus first 23 amino acids at the N-terminus (amino acids 24-211 of FGF-20),activity (BrdU incorporation) at lowest concentration tested,NIH 3T3 cells,retains high activity
PDGF-BB: control growth factor,effect of soluble receptor reagents on induction of DNA synthesis by control factor,[4],None of the soluble receptor reagents interfered
Peak 2: RP-HPLC peak at 27.3 min: CG53135-13 (residues 3-211),induction of DNA synthesis / activity in proliferation assays,[3],dose-dependent manner
same,PI200,[3],11 ng/mL
Peak 3: RP-HPLC peak at 28.5 min: CG53135-05 (residues 1-211),induction of DNA synthesis / activity in proliferation assays,[3],dose-dependent manner
same,PI200,[3],8.6 ng/mL
"Process 2 protein: protein product (CG53135-05) produced by the improved production process, Process 2",Turbidity,"[5]; Polysorbate added during ultrafiltration/diafiltration: No, 13.0 mg/mL",4.6 NTU
same,Turbidity,"[5]; Polysorbate added during ultrafiltration/diafiltration: Yes, 12.5 mg/mL",20.9 NTU
same,Solubility of Process 2 protein,"[6]; Arginine 0.05 M, Batches #1-#3",0.7 mg/mL and 0.6 mg/mL and 0.5 mg/mL
same,Solubility of Process 2 protein,"[6]; Arginine 0.15 M, Batches #1-#3",2.2 mg/mL and 1.6 mg/mL
same,Solubility of Process 2 protein,"[6]; Arginine 0.20 M, Batches #1-#3",3.0 mg/mL and 4.7 mg/mL and 4.3 mg/mL
same,Solubility of Process 2 protein,"[6]; Arginine 0.30 M, Batch #4",5.8 mg/mL
same,Solubility of Process 2 protein,"[6]; Arginine 0.35 M, Batch #4",10.1 mg/mL
same,Solubility of Process 2 protein,"[6]; Arginine 0.40 M, Batch #4",9.8 mg/mL
same,Solubility of Process 2 protein,"[6]; Arginine 0.45 M, Batch #4",32.3 mg/mL
same,Solubility of Process 2 protein,"[6]; Arginine 0.50 M, Batch #4 (not sufficient protein to be dissolved) and #5",23.8* mg/mL and 37 mg/mL
same,"Solubility of Process 2 protein, Arginine Sulfate vs Arginine Phosphate",[6]; first formulation line: 50 mM sodium phosphate monobasic and 0.15 M Arginine at pH 7,4400 µg/mL and 2300 µg/mL
same,"Solubility of Process 2 protein, Arginine Sulfate vs Arginine Phosphate",[6]; second formulation line: 50 mM sodium phosphate monobasic and 0.15 M Arginine at pH 7,6500 µg/mL and 5200 µg/mL
same,Solubility of Process 2 protein,"[6]; sodium phosphate monobasic 25 mM, 0.2 M arginine, Batches #A-#E",4.01 mg/mL and 2.4 mg/mL and 2.6 mg/mL and 3.59 mg/mL
same,Solubility of Process 2 protein,"[6]; sodium phosphate monobasic 50 mM, 0.2 M arginine, Batches #A-#E",5.47 mg/mL and 4.7 mg/mL and 3.3 mg/mL and 4.3 mg/mL and 4.81 mg/mL
same,Solubility of Process 2 protein,"[6]; sodium phosphate monobasic 75 mM, 0.2 M arginine, Batches #A-#E",4.06 mg/mL and 2.5 mg/mL and 2.6 mg/mL and 3.0 mg/mL and 2.38 mg/mL
same,Solubility of Process 2 protein,"[6]; sodium phosphate monobasic 100 mM, 0.2 M arginine, Batches #A-#E",3.78 mg/mL and 2.8 mg/mL and 2.4 mg/mL and 2.9 mg/mL and 2.47 mg/mL
"aFGF: acidic FGF, a factor known to interact with all of the FGFRs under analysis",effect of soluble receptor reagents on induction of DNA synthesis by control factor,[4],inhibit the induction of DNA synthesis
